Measurements taken from PMC6987092, “Characterization and diversity of the complete set of GH family 3 enzymes from Rhodothermus marinus DSM 4253” (Scientific Reports, 2020).

Columns and labels:
RmXyl3B = biological target: T1, RmXyl3B (Rhodothermus marinus, UniProt D0MHL5); assay: pNP release at […] nm; type: biochemical; settings: 20 mM citrate phosphate pH 5.6, 60 °C
T1 construct: gene Rmar_1081; locus tag is that of the type strain DSM 4252T homolog, gene cloned from DSM 4253

purified protein [1] = substrate: O=[N+]([O-])c1ccc(O[C@@H]2O[C@H](CO)[C@@H](O)[C@H](O)[C@H]2O)cc1; assay: purified protein; settings: 20 mM citrate phosphate pH 5.6, 60 °C
purified protein [2] = substrate: O=[N+]([O-])c1ccc(O[C@@H]2OC[C@@H](O)[C@H](O)[C@H]2O)cc1; assay: purified protein; type: biochemical, Rhodothermus marinus; settings: 20 mM citrate phosphate pH 5.6, 60 °C
purified protein [3] = substrate: CC(=O)N[C@H]1[C@H](Oc2ccc([N+](=O)[O-])cc2)O[C@H](CO)[C@@H](O)[C@@H]1O; assay: purified protein; type: biochemical, Rhodothermus marinus; settings: 20 mM sodium phosphate buffer, 60 °C

T1 sequence (D0MHL5 entry or part of it): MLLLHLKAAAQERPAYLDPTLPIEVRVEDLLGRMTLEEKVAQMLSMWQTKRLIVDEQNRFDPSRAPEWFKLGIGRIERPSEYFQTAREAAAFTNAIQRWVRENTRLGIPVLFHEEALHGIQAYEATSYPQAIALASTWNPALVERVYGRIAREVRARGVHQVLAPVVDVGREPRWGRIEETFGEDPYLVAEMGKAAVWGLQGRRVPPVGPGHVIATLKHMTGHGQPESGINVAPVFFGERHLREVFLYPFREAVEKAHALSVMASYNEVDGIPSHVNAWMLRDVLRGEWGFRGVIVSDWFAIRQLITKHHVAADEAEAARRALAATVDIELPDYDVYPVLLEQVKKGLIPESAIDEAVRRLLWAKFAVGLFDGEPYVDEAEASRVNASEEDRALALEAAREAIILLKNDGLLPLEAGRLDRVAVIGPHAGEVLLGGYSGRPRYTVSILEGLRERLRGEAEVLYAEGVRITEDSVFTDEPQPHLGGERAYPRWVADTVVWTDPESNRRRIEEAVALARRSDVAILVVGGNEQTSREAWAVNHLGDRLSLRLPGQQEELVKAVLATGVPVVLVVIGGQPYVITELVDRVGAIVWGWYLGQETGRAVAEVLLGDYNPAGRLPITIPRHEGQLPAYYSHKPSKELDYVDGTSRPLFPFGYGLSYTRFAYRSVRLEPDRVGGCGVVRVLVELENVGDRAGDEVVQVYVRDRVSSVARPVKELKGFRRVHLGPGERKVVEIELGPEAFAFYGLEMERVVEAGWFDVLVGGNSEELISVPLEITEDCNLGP

O=[N+]([O-])c1ccc(O[C@@H]2O[C@H](CO)[C@@H](O)[C@H](O)[C@H]2O)cc1 [pNP-β-Glc]
Km (RmXyl3B): 1600 ± 400 µM

O=[N+]([O-])c1ccc(O[C@@H]2OC[C@@H](O)[C@H](O)[C@H]2O)cc1 [pNP-β-Xyl]
Km (RmXyl3B): 300 µM

B1: RmXyl3A (Rhodothermus marinus DSM 4252) (protein)
chain: QERPAYLDPTLPIEVRVEDLLGRMTLEEKVAQMLSMRQTKRLIVDEQNRFDPSRAPEWFKLGIGRIERPSEYFQTAREAAAFTNAIQRWVRENTRLGIPVIFHEEALHGLRAAEATSYPQAIALASTWNPALVERVYGRIAREVRARGVHQVLAPVVDVGREPRWGRIEETFGEDPYLVAEMGKAAVWGLQGRRVPPVGPGHVIATLKHMAGHGQPESGINVAPVFFGERHLREVFLYPFREAVEKAHALSVMASYNEIDGIPSHANAWMLRDVLRGEWGFRGVIVSDWHGIPQLITRHHVAENLEEAARLALQATVDVELPDYEAYATLVDQVRRGLIPELAVDEAVRRLLWAKFAVGLFDGEPYVDEAEASRVNASEEDRALALEAAREAIILLKNDGLLPLEAGRLDRVAVIGPHAGEVLLGGYSGRPRYTVSILEGLRERLRGEAEVLYAEGVRITEDSVFTDEPQPHLGGTWARQRNAAHRVVFTPPEANRSRIEEAVALARTSDVVVLVVGGNEQTAREAYAPYHLGDRLSLRLPGQQEELVKAVLATGVPVVLVVIGGRPYVITELVDRVGAIVWGWYLGQETGRAVAEVLLGDYNPAGRLPITIPRHEGQLPAYYSHKPSKELDYVDGTSRPLFPFGYGLSYTRFAYRSVRLEPDRVGGCGVVRVLVELENVGDRAGDEVVQVYVRDRVSSVARPVKELKGFRRVHLGPGERKVVEIELGPEAFAFYGLEMERVVEAGWFDVLVGGNSEELISVPLEITEGCNLGR
notes: locus tag is that of the type strain DSM 4252T homolog, gene cloned from DSM 4253
Km (purified protein [1]): 6500 ± 800 µM | kcat (purified protein [1]): 29.2 s⁻¹ | kcat/Km (purified protein [1]): 4500 M⁻¹ s⁻¹ | Km (purified protein [2]): 400 ± 0 µM | kcat (purified protein [2]): 50.1 ± 1.9 s⁻¹ | kcat/Km (purified protein [2]): 140000 ± 15700 M⁻¹ s⁻¹

B2: RmBgl3C (Rhodothermus marinus DSM 4252) (protein)
chain: CQKAEQQPPSTAAFPPLSSYDEQARALLEQMTLEEKIGQMIQAEQAFLQDPYDIQTYHLGSILSGGNSDPADGNSLEAWTEVYDSLQAIALRTRLGIPLLYGIDAVHGHSNVEGAVVFPHHIGLGATRDPDLVERVYRITAIEMRATGIHWNFAPCIAVARDERWGRTYESFSEDPELVATLGAAAVRGLQNGGLNNPLAVLATAKHFAGDGGTAFGTGGPQGALLDQGDVRLDEATFRRIHVRPYIDAIQAGVGSIMVSYSSWNGVKMTGHKYMLTDVLKGELGFEGIVISDYNAIDQVHPDYKTAIEIAINAGIDMAMVPTRYREFFQLLKELVEEGRVPMERIDDAVLRILRVKFAMGLMDGPEHVFADRSLWAKFGSAEHRAVAREAVRKSLVLLKNENQTLPLAKDLGRIHVAGLHADNLGYQAGGWTIDWQGGSGDITEGTTILEAIRKAVAPGTEVTYSEDGSGAAGADVAIAVIGERPYAEFLGDRSDLSLDPDDVAVVRRLKEAGVPVVVILISGRPMIINDVLEMADAFIAAWLPGSEGDGVADVLFGDYAPTGKLPFSWPRSMDQIPINVGDEDYDPLFPFGYGLTY
Km (purified protein [1]): 1600 ± 900 µM | kcat (purified protein [1]): 67.2 s⁻¹ | kcat/Km (purified protein [1]): 42900 M⁻¹ s⁻¹

B3: RmNag3 (Rhodothermus marinus DSM 4252) (protein)
chain: HRSELDTAPPDRTRPGAWTETQLRTLTLAQQIGQLFAVRARGVFQSVDDPDYRELVRLVEQFQVGGVIFFQGDPYSQAMLANELQRRSRLPLLIAQDTEWGVAMRVRRTTSFPRAMAIGATGNPDYAYAVGYVTAREARALGVHQLYAPVADVNNNPMNPIINVRAFGEDPLQVATMVRAFVRGVQDAGAIATAKHFPGHGDTSIDSHSDLPVLRFDRKRLDTLELVPFRAAIKAGVQSIMTGHLALPRLDPTPNLPASLSRRITHELLREELGFDGLVVTDALEMQGVTKHFGVGEAAVRALEAGADMLLLSEDVEAARSAILQAVAQGRLSRARIEASVRRILLAKERLGLHRERLVDLNAIPYVVGIAPHQALSQTIARASLTLLRNEGNLLPLPDVPATPRQLQVIILSDSDDPATGRFFVQTLREIAPDDRIASRLLDVRSHPDDYRAALEAAARADVVLVPAYLFVRSGTGRIRLPERQRTFLDALIAQGRPVVLIAFGNPYLIMDLQRPPAVYLAAYGGSESTQRAAVQAIFGQAPFTGRLPITIPGHFQRGDGLQLEQVAPRLAYPEEVGMSTQRLYRVDSLLRAAIADSAFPGAAVAIGRGPAIVWLKGYGHFTYTSDQRVTPSSVFDLASLTKVVVTTTAAMQLYEAGKLDLDAPVVRYLPEFGQNGKERVTIRQLLSHTAGLAPFHPFHRMGITTAEAVRQAILSDSLIYEPGTQSRYSDLGMIVLGWVIERITGQPLDRYAAEHIFRPLGMRHTGFRPVGRPDTTVVPTEIDTIFRHRLIQGEVHDETAWILGGVAGHAGLFSTAEDLARFAYMLVNEGRIGGRPFLKPETIRLFTTPVDPERAGTRALGWDTRSREGYSSAGRLFGSRSFGHTGFTGTSIWIDPDQQLFVILLTNRVYPTRENRKHLAVRARLADLAYEALIGPPTLNLNALLP
notes: recombinant in E. coli BL21 C43 (pJOE3075), signal peptide removed, C-terminal His-tag, includes beta-lactamase domain; locus tag is that of the type strain DSM 4252T homolog, gene cloned from DSM 4253
Km (purified protein [3]): 100 ± 0 µM | kcat (purified protein [3]): 102 ± 3 s⁻¹ | kcat/Km (purified protein [3]): 1.31e+06 ± 50300 M⁻¹ s⁻¹

B4: RmBgl3A (Rhodothermus marinus DSM 4252) (protein)
chain: MRTLRLLTLSLLWSGWLLPAIAQVDRAREDSLIEALLARMTLEEKLGQLTLYNGGMAETGPVVREGEPDAIRRGRVGAVMNFFGAEAVCAMQRQAVEESRLGIPLLFALDVIHGFRTIFPVPLAEAATFDPALVEQAARVAAGEASAVGLNWTFAPMVDIARDARWGRIVEGSGEDPYLGAVMAAARVRGFQGRDLRDPTTILATAKHFAAYGAAEAGRDYNTVDVSERTLREVYLPPFEAAVRAGALSIMSAFNEIGGVPATADRWLLTDVLRHEWGFEGLVVSDYTSVWELLFHGIAADSAEVGRKALEAGVDMDMVSGIYVRKLAEEVRAGRLSEAVVDEAVRRVLRVKYRLGLFEDPYRYCRDASREQVLLSPAHRRLAREVARKAIVLLKNEGELLPLADTLQRVAVIGALANDSASVLGPWAAAGRPEDAVTILEGIRAALPGATVRYAPGYAEVPSGSFQEMVAAALSPDTSGFAEAEAVARWAEVVILVLGEHRELSGEAASRASVELPGVQLALAWRLLALGRPVVVVLMNGRPLAIPELAASAPAIVEAWFLGTEMGHAVADVLLGKASPGGRLPVSFPRATGQEPLYYNHKPTGRPPRAEEKYTSKYVDVPWTPLYPFGYGLTYTTFAYDSLRLSRRRLGLDDTLEVVVSVTNTGRRRGEEVVQLYVRDEVASVTRPVKELKGFARVELAPGETKAVQFRLPVRALRFWGLEGGWVVEPGWFTLWVGPSSAEGLQARFEVVSP
notes: recombinant in E. coli BL21 C43 (pJOE3075), C-terminal His-tag, no signal peptide predicted; locus tag is that of the type strain DSM 4252T homolog, gene cloned from DSM 4253
Km (purified protein [1]): 100 ± 0 µM | kcat (purified protein [1]): 79.9 s⁻¹ | kcat/Km (purified protein [1]): 755000 M⁻¹ s⁻¹ | Km (purified protein [2]): 11800 ± 1000 µM | kcat (purified protein [2]): 140.8 ± 0.6 s⁻¹ | kcat/Km (purified protein [2]): 12000 M⁻¹ s⁻¹

B5: RmBgl3B (Rhodothermus marinus DSM 4252) (protein)
chain: QSSRVDSLLAAMTLAEKISLLHGAIDPTGEAGAGYVPGVPRLGIPAMRLTDGPAGIRTRHPATALPAPVALAASFDPELAYRYGHVMGIEGRARRHEVLLSPMVNIVRVPEAGRNFETFSEDPLLSAEMVAAEVRGIQDAGMMATVKHYVANNFENDRMRVNVVVDERTLREIYLPGFEAAIKAGAAAVMCAYNRVNGPYACDNEMLLTDILRDEWGFEGWVMTDWFAGHSLESLVRGLDQEMPGYTIPFSSPDMPLAPAVFADSLLAAVESGRIDEAYVDRAVRRILVQMEQFGLLDGESTPPEINIEAHAAVAREVAEAGAVLLRNENQTLPLSERDLQHLVVIGPTATRPLIGGGGSSRVQPFRTTSTLAALQELAGPQAQIRYVPGIDLDGMPVPSSALRTPDGQPGLLRQGADGTTQVDAQLDFTGERALPPGSQWTWTGTLTAPTAGVYELKLQTAGGVGTLSIDGQPVLRTGMFFSDASLIPTADSLENATYRIELQAGQQLSLTVQISGQVPSLPFLPAGQNPVQVRLAWVTPERRAAFLEEAAEAARAAHAAIVFVYEEGTEGRDRETLALRPDQDALVEAVAAANPRTTVVMNVGAPTLMPWAERVGAILLMWYPGQEGGWATADVLLGRANPAGRLPVTFPRRAEDAPTASPERYPGVDLTARYDEGIFVGYRWYDAQQIEPLFPFGHGLSYTTFAYENLRVEPDGDGFVVRFVVRNTGDRAGSDVPQVYLGPPENPPVPMAVRQLVGFRRVTLAPGEAQEVTVRIDGRALSYWSVEDHAWVKATGRRTLYVGASARDLRLQTEIDVQ
notes: recombinant in E. coli BL21 C43 (pET-21b(+)), signal peptide removed, C-terminal His-tag; locus tag is that of the type strain DSM 4252T homolog, gene cloned from DSM 4253
Km (purified protein [1]): 100 ± 0 µM | kcat (purified protein [1]): 49.5 s⁻¹ | kcat/Km (purified protein [1]): 511000 M⁻¹ s⁻¹ | Km (purified protein [2]): 1200 ± 100 µM | kcat (purified protein [2]): 65.8 ± 0.4 s⁻¹ | kcat/Km (purified protein [2]): 56200 ± 700 M⁻¹ s⁻¹
